From publication PMC5880071, “Self-sustained enzymatic cascade for the production of 2,5-furandicarboxylic acid from 5-methoxymethylfurfural” (Biotechnology for Biofuels, 2018)

Tests used:
[1] = target: T1, UPO (unspecific peroxygenase), PaDa-I variant (Cyclocybe aegerita, UniProt B9W4V6, V100A/L110F/V118I/I291V/F354L); assay: GC-MS product analysis (FFCA formed); type: biochemical; settings: 1.5 mM MMFA, 5 µM UPO, 1.5 mM H2O2; ether cleavage
T1 construct: gene APO1

purified protein [2] = substrate: O=Cc1ccc(C=O)o1; assay: purified protein; settings: O2 co-substrate (air), sodium phosphate pH 7.0 (50 mM in Table 1, 100 mM in Methods), 25 °C
purified protein [3] = substrate: COCc1ccc(C=O)o1; assay: purified protein; type: biochemical, Pleurotus eryngii; settings: O2 co-substrate (air), sodium phosphate pH 7.0 (50 mM in Table 1, 100 mM in Methods), 25 °C
purified protein [4] = substrate: O=Cc1ccc(CO)o1; assay: purified protein; type: biochemical, Pleurotus eryngii; settings: O2 co-substrate (air), sodium phosphate pH 7.0 (50 mM in Table 1, 100 mM in Methods), 25 °C

T1 sequence (B9W4V6 44-371 V100A/L110F/V118I/I291V/F354L): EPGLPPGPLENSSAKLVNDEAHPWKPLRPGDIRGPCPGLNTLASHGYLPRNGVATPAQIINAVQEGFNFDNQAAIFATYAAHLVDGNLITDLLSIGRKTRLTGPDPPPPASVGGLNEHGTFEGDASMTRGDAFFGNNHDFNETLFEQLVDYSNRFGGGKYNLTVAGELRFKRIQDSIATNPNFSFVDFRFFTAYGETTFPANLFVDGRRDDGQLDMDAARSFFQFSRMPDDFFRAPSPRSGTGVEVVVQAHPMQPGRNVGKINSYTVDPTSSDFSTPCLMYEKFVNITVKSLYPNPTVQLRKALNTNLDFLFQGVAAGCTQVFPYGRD

Molecule: COCc1ccc(C(=O)O)o1 [MMFA, 5-(Methoxymethyl)-2-furancarboxylic acid]
- GC-MS product analysis (FFCA formed) [1]: UPO is indeed capable to cleave the ether bond of MMFA

B1: AAO (aryl-alcohol oxidase) (Pleurotus eryngii) (protein)
chain: ADFDYVVVGAGNAGNVVAARLTEDPDVSVLVLEAGVSDENVLGAEAPLLAPGLVPNSIFDWNYTTTAQAGYNGRSIAYPRGRMLGGSSSVHYMVMMRGSTEDFDRYAAVTGDEGWNWDNIQQFVRKNEMVVPPADNHNTSGEFIPAVHGTNGSVSISLPGFPTPLDDRVLATTQEQSEEFFFNPDMGTGHPLGISWSIASVGNGQRSSSSTAYLRPAQSRPNLSVLINAQVTKLVNSGTTNGLPAFRCVEYAEQEGAPTTTVCAKKEVVLSAGSVGTPILLQLSGIGDENDLSSVGIDTIVNNPSVGRNLSDHLLLPAAFFVNSNQTFDNIFRDSSEFNVDLDQWTNTRTGPLTALIANHLAWLRLPSNSSIFQTFPDPAAGPNSAHWETIFSNQWFHPAIPRPDTGSFMSVTNALISPVARGDIKLATSNPFDKPLINPQYLSTEFDIFTMIQAVKSNLRFLSGQAWADFVIRPFDPRLRDPTDDAAIESYIRDNANTIFHPVGTASMSPRGASWGVVDPDLKVKGVDGLRIVDGSILPFAPNAHTQGPIYLVGKQGADLIKADQ
- Km (purified protein [2]): 3.3 ± 0.2 mM
- kcat (purified protein [2]): 0.523 s⁻¹
- kcat/Km (purified protein [2]): 157 M⁻¹ s⁻¹
- Km (purified protein [3]): 60.8 ± 5.5 mM
- kcat (purified protein [3]): 0.263 ± 0.01 s⁻¹
- kcat/Km (purified protein [3]): 5.83 ± 0.333 M⁻¹ s⁻¹
- Km (purified protein [4]): 1.6 ± 0.2 mM
- kcat (purified protein [4]): 0.335 ± 0.01 s⁻¹
- kcat/Km (purified protein [4]): 215 ± 20 M⁻¹ s⁻¹
